Data on five molecules can be found in patent US8337851B2, “Methods of monitoring the efficacy of anti-CD40 antibodies in treating a subject for a CD40-expressing cancer” (Novartis AG, priority 2005, dated 2012).

Entries after “also recorded” stand apart in the source; their conditions may differ.

Assay [1] has as its system B-CLL cells from patients. In words: PI3K and MEK inhibitors on CD40L signaling and survival in B-CLL cells. It is filed as cell-based, human. As to the method:
A PI3K inhibitor (LY294002; Sigma, St. Louis, Mo.) and MEK inhibitor (PD98595; Cell Signaling Technology, Beverly, Mass.) were used to dissect the pathways required for CLL cell survival. In these experiments, 1.0×10^6 B-CLL cells from patients were serum starved in 1% FBS containing media for 4 hours. Serum-starved cells were then pretreated with LY294002 (PI3K inhibitor, 30 μM) or PD98595 (MEK inhibitor, 10 μM). Cell lysates were then collected before and 20 minutes after CD40L stimulation. Western blot analysis with antibodies to p-IKK α/β, p-ERK, p-Akt was conducted, and equal loading was evaluated by probing antibodies to total ERK and β-actin.

Assay [2] deals with B-CLL cells. As to the kind of experiment: p38 MAPK signaling in B-CLL cells, four-hour experiment. As to conditions: 4 hours; SB203580 30 and 60 μM, CHIR-12.12 10 μg/mL. It counts as cell-based, human. As to the method:
In the four-hour experiment, approximately 0.8×10^6 B-CLL cells per well were serum starved in 1% FBS-containing media for 4 hours. […] Cell lysates were collected before and 20 minutes after CD40L stimulation. Western blot analysis with antibodies against specific proteins shown were conducted, and equal loading was evaluated by probing with antibodies to total p38 (t-p38) and β-actin.

Assay [3] relates to B-CLL cells. In words: p38 MAPK signaling and survival in B-CLL cells, 24-hour experiment. It is filed as cell-based, human. As to the method: In the 24-hour experiment, approximately 0.8×10^6 B-CLL cells per well were placed in full serum (10% FBS)-containing media for 24 hours. […] Western blot analysis with antibodies against specific proteins shown was conducted, and equal loading was evaluated by probing with antibodies against β-actin.

Assay [4] has as its system IM-9 tumor cells (a human multiple myeloma cell line). In words: IM-9 multiple myeloma subcutaneous xenograft model. It counts as in vivo, SCID mice. As to the method: SCID mice were inoculated subcutaneously with IM-9 tumor cells (a human multiple myeloma cell line expressing both CD40 and CD20) in 50% […]™ at 5×10^6 cells per mouse. […] Alternatively, bortezomib dosing at 1 mg/kg intravenously occurred on days 5, 8, 12, and 15 after tumor implantation. […] Antibody dosing occurred on days 8, 14, and 21 post tumor implantation, while bortezomib dosing occurred on days 8, 11, 14 and 18 post tumor implantation. […] Data were analyzed using the log-rank test.

Assay [5] relates to KMS-12-BM tumor. As to the kind of experiment: Human KMS-12-BM subcutaneous xenograft model. It counts as in vivo, SCID mice. The settings on record: 1 mg/kg i.v. twice a week for two weeks (maximal tolerated dose); P>0.05. The method, then:
Female SCID mice were treated with 3Gy irradiation one day prior to implantation of tumor cells. On the day of implantation, cells were prepared at a concentration of 5×10^7 cells/ml in 50% matrigel. Cells were implanted subcutaneously over the right flank at 5×10^6 cells/100 μl/mouse. […] Antibodies were administered intraperitoneally once a week for 4 weeks. Bortezomib was administered intravenously twice a week for two weeks.

Assay [6] concerns CD40-expressing target cells. As to the kind of experiment: ADCC activity of anti-CD40 antibodies (Table 1). It is filed as cell-based.
The target of assay [7] is soluble CD40 (Homo sapiens, UniProt P25942). As to the kind of experiment: ELISA-type binding to soluble CD40. As to conditions: ELISA-type assays. An excerpt: (§1) 2, 2000, and PCT International Application No. PCT/US01/30857, also titled “Human Anti-CD40 Antibodies,” filed Oct. 2, 2001, both of which are herein incorporated by reference in their entirety.
soluble CD40, sequence (P25942 21-193 limits assumed): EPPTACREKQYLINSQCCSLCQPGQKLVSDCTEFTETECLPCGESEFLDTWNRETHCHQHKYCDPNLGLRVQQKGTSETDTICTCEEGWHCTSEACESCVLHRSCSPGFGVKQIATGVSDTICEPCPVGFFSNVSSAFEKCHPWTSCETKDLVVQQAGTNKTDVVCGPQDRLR
In assay [8] the target is cell-surface CD40 (Homo sapiens, UniProt P25942). As to the kind of experiment: Flow cytometric CD40-ligand binding blockade and displacement. The settings on record: flow cytometric assays / FACS.
cell-surface CD40, sequence (P25942 21-277): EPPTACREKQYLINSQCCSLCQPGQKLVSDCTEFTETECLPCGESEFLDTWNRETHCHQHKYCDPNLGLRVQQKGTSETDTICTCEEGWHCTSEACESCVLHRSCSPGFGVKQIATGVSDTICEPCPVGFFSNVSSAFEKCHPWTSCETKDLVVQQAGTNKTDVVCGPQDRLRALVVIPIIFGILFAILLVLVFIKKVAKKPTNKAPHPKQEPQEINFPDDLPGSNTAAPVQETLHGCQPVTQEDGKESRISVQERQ
Description: as §1
(§2) 4, 2003, Nov. 26, 2003, and Apr. 27, 2004, and assigned U.S. Patent Application Nos. 60/517,337, 60/525,579, and 60/565,710, respectively, and International Patent Application No. PCT/US2004/037152, also entitled “Antagonist, Anti-CD40 Monoclonal Antibodies and Methods for Their Use,” filed Nov. 4, 2004; the contents of each of which are herein incorporated by reference in their entirety.
(In flow cytometry, cells or beads pass a laser one at a time.)

In assay [9] the test system is B cells from normal human subjects. In words: In vitro CD40 ligand-mediated proliferation of normal B cells. It is filed as cell-based.
Description: as §1, §2

In assay [10] the test system is cancer cells from NHL and CLL patients. As to the kind of experiment: In vitro CD40 ligand-mediated proliferation of patient cancer cells. It is filed as cell-based, human.
Description: as §2

In assay [11] the test system is primary cancer cells from NHL patients. As to the kind of experiment: ADCC against primary cancer cells. It counts as cell-based, human. As to conditions: in vitro.
Description: as §2

In assay [12] the test system is human lymphocytes from normal subjects. In words: Proliferation of human lymphocytes. It is filed as cell-based. The settings on record: antibody alone.
Assay [13] has as its system normal B cells. As to the kind of experiment: CD40L-induced cytokine secretion from normal B cells (Meso Scale Discovery). It counts as cell-based, human. As to conditions: 24 hours. As to the method:
(§3) Cells (1×10^5 cells per well) were cultured in a 96-well plate in the presence or absence of CD40L (CD40 transfected, formaldehyde fixed CHO cells, 2×10^5 per well). […] Production of hIL-6, hIL-8, hIL-10, hTNF-α, hGM-CSF, hIL-1b, hIL-12p70, MCP-1, and MIP-1β was measured by Meso Scale Discovery® multi-array system (Meso Scale Discovery, Gaithersburg, Md.).

Assay [14] deals with CLL cells. As to the kind of experiment: CD40L-induced cytokine secretion by CLL cells (Meso Scale Discovery). It is filed as cell-based, human. As to conditions: CLL #1; 24 hours. As to the method:
as §3

The test system of assay [15] is B-CLL cells. In words: CellTiter-Glo viability of CLL patient PBMCs. It is filed as cell-based, human. The settings on record: 72 hours, 2 μg/ml rhsCD40L + 4 μg/ml enhancer. As to the method: Cell viability was determined after 72 hours using the CellTiter-Glo® Luminescent Cell Viability Kit (Promega, Madison, Wis.), which measures cellular ATP, and expressed as Relative Luminescence Units (RLU). Percent blockade was calculated as follows: […]
For orientation: In ATP-based viability assays light output follows the ATP content of the culture.

Assay [16] has as its system B-CLL cells. As to the kind of experiment: cPARP flow cytometry of CLL patient PBMCs. It counts as cell-based, human. As to conditions: 24 hours. As to the method: [formula] cPARP analysis by flow cytometry was performed after 24 hours in culture. Cells were treated with FACSLysis buffer (BD Biosciences) and frozen. After fixation in 1% formaldehyde for 45 min, cells were washed and incubated with PE-conjugated mouse anti-human CD19 for 30 min at room temperature (RT). Cells were then permeabilized using 70% ethanol on ice for 30 min and stained for 30 min at RT with rabbit anti-human cPARP antibody or isotype control rabbit IgG along with PerCP-Cy5.5-labeled mouse anti-human CD5. This was followed by incubation with goat anti-rabbit IgG-AlexaFluor 647 for 30 min at RT before fixing with 1% formaldehyde and analyzing by flow cytometry. Percent blockade was calculated as follows: […]

As to `COc1cccc(-c2cc(=O)c3ccccc3o2)c1N` [PD98595], in assay [1] (LY294002 30 μM or PD98595 10 μM), the IKK/NFkB activation result is listed as “no change of IKK/NFkB activation”. For the same molecule, the “survival mediated by CD40L (cleaved PARP, caspase-3, Bcl-xl)” value in assay [1] (LY294002 or PD98595, FIG. 9) is recorded as “no change of survival mediated by CD40L”. Besides, in [1] (PD98595 10 μM, 20 minutes after CD40L), the “activation of ERK induced by CD40L” value is “inhibited activation of ERK”.

In the case of `C[S+]([O-])c1ccc(-c2nc(-c3ccncc3)c(-c3ccc(F)cc3)[nH]2)cc1` (stereo not shown) [SB203580, reference compound], the “p38 activation by CD40L” value in [2] is “slightly inhibited”. Further, in [3] (CD40L), the “cleaved Caspase-3” value is “induced to a lesser extent” and the p38 phosphorylation result is “similarly blocked”. For the same molecule, in assay [3] (SB203580 30 and 60 μM, CHIR-12.12 10 μg/mL, CD40L), the cleaved-PARP result is recorded as “significantly induced”. Besides, in [3] (especially 60 μM SB203580 and 10 μg/ml CHIR-12.12), the Bcl-xl expression result is listed as “blocked”.

For `CC(C)C[C@H](NC(=O)[C@H](Cc1ccccc1)NC(=O)c1cnccn1)B(O)O` [bortezomib, reference compound], the tumor growth entry in assay [4] (first study, CHIR-12.12 1 and 10 mg/kg i.p. days 5, 12, 18, bortezomib 1 mg/kg i.v. days 5, 8, 12, 15) is “inhibited tumor growth at 15, 18, and 21 days post tumor implantation”; in [4] (second study, bortezomib 1 mg/kg i.v. days 8, 11, 14, 18), “did not display statistically significant growth inhibition”. For the same molecule, the tumor volume reduction in [5] was determined as 22%.

Turning to “CHIR-5.9: fully human anti-CD40 monoclonal antibody of the IgG1 isotype from hybridoma cell line 131.2F8.5.9 (ATCC PTA-5542)”, the “killing of CD40-expressing target cells by ADCC” value in assay [6] was “able to kill CD40-expressing target cells”. Moreover, the “binding to soluble CD40” value in [7] was “bind soluble CD40”. Further, in [8], the “displacement of pre-bound CD40-ligand” value was “displace the pre-bound CD40-ligand; also recorded: can compete off CD40-ligand pre-bound to cell surface CD40” and the “prevention of CD40-ligand binding to cell-surface CD40” value was “prevent the binding of CD40-ligand to cell-surface CD40; also recorded: can prevent CD40-ligand binding”. For the same molecule, the “effect on proliferation of normal B cells” value in assay [9] was “act as antagonist anti-CD40 antibodies; also recorded: inhibit in vitro CD40 ligand-mediated proliferation of normal B cells”. The “effect on CD40 ligand-mediated proliferation of cancer cells” value in [10] is “inhibiting in vitro CD40 ligand-mediated proliferation of cancer cells from NHL and CLL patients”. Moreover, the “killing of primary cancer cells by ADCC” value in assay [11] is “kill primary cancer cells from NHL patients by ADCC”. Further, the “induction of lymphocyte proliferation (agonist activity)” value in [12] is on record as “do not induce strong proliferation of human lymphocytes from normal subjects”.

B1: CD40L: CD40 ligand used as stimulus: transfected formaldehyde fixed CHO cells (Example 4) or recombinant human soluble CD40L (Example 7) (protein)
chain: MIETYNQTSPRSAATGLPISMKIFMYLLTVFLITQMIGSALFAVYLHRRLDKIEDERNLHEDFVFMKTIQRCNTGERSLSLLNCEEIKSQFEGFVKDIMLNKEETKKENSFEMQKGDQNPQIAAHVISEASSKTTSVLQWAEKGYYTMSNNLVTLENGKQLTVKRQGLYYIYAQVTFCSNREASSQAPFIASLCLKSPGRFERILLRAANTHSSAKPCGQQSIHLGGVFELQPGASVFVNVTDPSQVSHGTGFTSFGLLKL
In the case of B1, in assay [13] (Donor 1), the MCP-1 secretion was 5.5 folds of induction over background, the MIP-1β secretion is given as 2.2 folds of induction over background, the hGM-CSF secretion result was “no induction” and the hIL-1b secretion entry is “no induction”. In assay [13] (Donor 1), the hIL-6 secretion was 5.7 folds of induction over background, the hIL-8 secretion is recorded as 7.7 folds of induction over background, the hIL-10 secretion was 3.6 folds of induction over background and the hIL-12p70 secretion result is given as “no induction”. The hTNF-α secretion in assay [13] (Donor 1) was 3.7 folds of induction over background. For the same molecule, in [13] (Donor 2), the MIP-1β secretion is 2.6 folds of induction over background, the hIL-1b secretion result is on record as “no induction”, the hIL-6 secretion is reported as 3.8 folds of induction over background and the hIL-8 secretion is recorded as 14.7 folds of induction over background. The hTNF-α secretion in assay [13] (Donor 2) is recorded as 4.8 folds of induction over background. For the same molecule, in assay [13] (Donor 3), the MCP-1 secretion is on record as 1.7 folds of induction over background, the MIP-1β secretion is 17.8 folds of induction over background, the hGM-CSF secretion result was “no induction” and the hIL-1b secretion result was “no induction”. In [13] (Donor 3), the hIL-6 secretion is 20.5 folds of induction over background, the hIL-8 secretion is given as 49.3 folds of induction over background, the hIL-10 secretion is on record as 3.6 folds of induction over background and the hIL-12p70 secretion entry was “no induction”. In assay [13] (Donor 3), the hTNF-α secretion is on record as 22.8 folds of induction over background. Further, in assay [14], the MCP-1 secretion is listed as 5.5 folds of induction over background, the MIP-1β secretion entry is listed as “no induction”, the hGM-CSF secretion is on record as 7.6 folds of induction over background and the hIL-1b secretion entry was “no induction”. Further, in [14], the hIL-6 secretion entry is listed as “no induction”, the hIL-8 secretion is reported as 4.0 folds of induction over background, the hIL-10 secretion is 9.2 folds of induction over background and the hTNF-α secretion is given as 3.3 folds of induction over background. Moreover, the “samples in which CD40L promoted survival of B-CLL cells” value in [15] is recorded as 7/7. Further, in assay [16], the “samples in which CD40L promoted survival of B-CLL cells” value is reported as 6/7.
